Source: patent US6365126

Molecular target: H-Ras (UniProt P01112)
Sequence (P01112 whole entry, looked up): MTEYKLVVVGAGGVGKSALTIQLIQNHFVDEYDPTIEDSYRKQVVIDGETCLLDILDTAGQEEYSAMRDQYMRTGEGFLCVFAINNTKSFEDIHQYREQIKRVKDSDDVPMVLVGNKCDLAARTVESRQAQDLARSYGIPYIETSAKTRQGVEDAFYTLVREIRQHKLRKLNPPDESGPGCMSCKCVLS

For “human NF1 catalytic domain fusion protein”, the “GTPase activity of H-Ras (GAP assay)” value was “All three fusion proteins stimulated the GTPase activity of H-Ras”.
